Source: article PMC3920835

Target: Methylibium petroleiphilum PM1 dioxygenase (Mpe_A2762) (Methylibium petroleiphilum PM1) (UniProt A2SJH7)
Assay: SEC-MALS

stoichiometry N: 2
Substance: Methylibium petroleiphilum PM1 dioxygenase (Mpe_A2762) (from UniProt A2SJH7 1-253) (enzyme)
